Variants at the floor of the assay were thinned out.
Key:
biotinyl-Met-oxazolone = assay: self-aminoacylation, catalytic enhancement (BMO) (fold over background); higher = more active; k-Seq, kA / k0A0; sequences stand for … in GGGAAUGGAUCCACAUCUACGAAUUC…UUCACUGCAGACUUGACGAAGCUG
Outline: (§1)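 Mutagenized RNA pools (0.43 μM; 21-nt variable region) were treated with 2–1250 μM of each biotinyl-aminoacyl-oxazolone. Conditions were 50 μL HEPES/NaCl/KCl/MgCl2/CaCl2 buffer, 5% acetonitrile, pH 6.9–7.0, room temperature, 90 minutes. Catalytic enhancement, the median kA relative to the uncatalyzed rate, was derived from streptavidin capture, qPCR and Illumina sequencing.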

biotinyl-Phe-oxazolone = assay: self-aminoacylation, catalytic enhancement (BFO) (fold over background); higher = more active; k-Seq, kA / k0A0; sequences stand for … in GGGAAUGGAUCCACAUCUACGAAUUC…UUCACUGCAGACUUGACGAAGCUG
Outline: as §1

biotinyl-Ile-oxazolone = assay: self-aminoacylation, catalytic enhancement (BIO) (fold over background); higher = more active; k-Seq, kA / k0A0; sequences stand for … in GGGAAUGGAUCCACAUCUACGAAUUC…UUCACUGCAGACUUGACGAAGCUG
Outline: as §1

biotinyl-Trp-oxazolone = assay: self-aminoacylation, catalytic enhancement (BWO) (fold over background); higher = more active; k-Seq, kA / k0A0; sequences stand for … in GGGAAUGGAUCCACAUCUACGAAUUC…UUCACUGCAGACUUGACGAAGCUG
Outline: as §1

biotinyl-Leu-oxazolone = assay: self-aminoacylation, catalytic enhancement (BLO) (fold over background); higher = more active; k-Seq, kA / k0A0; sequences stand for … in GGGAAUGGAUCCACAUCUACGAAUUC…UUCACUGCAGACUUGACGAAGCUG
Outline: as §1

biotinyl-Val-oxazolone = assay: self-aminoacylation, catalytic enhancement (BVO) (fold over background); higher = more active; k-Seq, kA / k0A0; sequences stand for … in GGGAAUGGAUCCACAUCUACGAAUUC…UUCACUGCAGACUUGACGAAGCUG
Outline: as §1

| Sequence | self-aminoacylation (biotinyl-Met-oxazolone) | self-aminoacylation (biotinyl-Phe-oxazolone) | self-aminoacylation (biotinyl-Ile-oxazolone) | self-aminoacylation (biotinyl-Trp-oxazolone) | self-aminoacylation (biotinyl-Leu-oxazolone) | self-aminoacylation (biotinyl-Val-oxazolone) |
| --- | --- | --- | --- | --- | --- | --- |
| AUUACCCUGGUCAUCGAAUAA [Fam2.1 aminoacylation ribozyme variant] | 0.987 | 0.904 | 0.801 | 1.41 | 0.914 | 1.15 |
| AUUACCCUGGUCAUCGACUGU [Fam2.1 aminoacylation ribozyme variant] | 0.726 | 0.377 | 0.846 | 0.723 | 0.82 | 0.804 |
| AUUACCCUGGUCAUCGAGAGA [Fam2.1 aminoacylation ribozyme variant] | 1.8 | 3.1 | 1.28 | 1.46 | 1.72 | 1.36 |
| AUUACCCUGGUCAUCGAGAGU [Fam2.1 aminoacylation ribozyme variant] | 0.991 | 1.79 | 0.803 | 0.568 | 0.822 | 1.02 |
| AUUACCCUGGUCAUCGAGGCA [Fam2.1 aminoacylation ribozyme variant] | 1.9 | 1.25 | 1.29 | 0.847 | 1.97 | 1.59 |
| AUUACCCUGGUCAUCGAGGGA [Fam2.1 aminoacylation ribozyme variant] | 5.93 | 9.56 | 2.71 | 5.46 | 5.66 | 2.99 |
| AUUACCCUGGUCAUCGAGUCU [Fam2.1 aminoacylation ribozyme variant] | 0.784 | 0.56 | 0.697 | 0.846 | 0.712 | 0.901 |
| AUUACCCUGGUCAUCGAGUUG [Fam2.1 aminoacylation ribozyme variant] | 2.14 | 3.62 | 1.27 | 1.47 | 2.04 | 1.75 |
| AUUACCCUGGUCAUCGAUUGC [Fam2.1 aminoacylation ribozyme variant] | 0.757 | 0.81 | 1.15 | 0.663 | 0.84 | 0.926 |
| AUUACCCUGGUCAUCGCCUGA [Fam2.1 aminoacylation ribozyme variant] | 2.48 | 14.2 | 2.72 | 3.69 | 3.64 | 3.15 |
| AUUACCCUGGUCAUCGCGGGA [Fam2.1 aminoacylation ribozyme variant] | 5.35 | 29.3 | 5.03 | 3.4 | 7.42 | 4.56 |
| AUUACCCUGGUCAUCGCGUGU [Fam2.1 aminoacylation ribozyme variant] | 8.31 | 51.7 | 4.14 | 8.25 | 9.06 | 4.84 |
| AUUACCCUGGUCAUCGCGUUA [Fam2.1 aminoacylation ribozyme variant] | 2.71 | 12.7 | 2.27 | 4.12 | 2.73 | 2.32 |
| AUUACCCUGGUCAUCGGGUGG [Fam2.1 aminoacylation ribozyme variant] | 68 | 395 | 22.6 | 81.4 | 80.6 | 26.3 |
| AUUACCCUGGUCAUCGUGUGA [Fam2.1 aminoacylation ribozyme variant] | 3.01 | 17.2 | 1.58 | 3.41 | 3.08 | 1.85 |
| AUUACCCUGGUCAUCUAAUGA [Fam2.1 aminoacylation ribozyme variant] | 1.06 | 0.963 | 0.967 | 0.586 | 0.908 | 0.917 |
| AUUACCCUGGUCAUCUAGAGA [Fam2.1 aminoacylation ribozyme variant] | 0.865 | 0.684 | 1.04 | 0.6 | 0.887 | 1.03 |
| AUUACCCUGGUCAUCUAGUGC [Fam2.1 aminoacylation ribozyme variant] | 1.06 | 1.27 | 0.835 | 0.68 | 1.08 | 1 |
| AUUACCCUGGUCAUUCAGUGA [Fam2.1 aminoacylation ribozyme variant] | 4.7 | 14.1 | 3.33 | 6.28 | 5.37 | 3.16 |
| AUUACCCUGGUCAUUGAGGGA [Fam2.1 aminoacylation ribozyme variant] | 1.25 | 1.13 | 1.23 | 2.06 | 1.25 | 1.51 |
| AUUACCCUGGUCAUUGAGUGU [Fam2.1 aminoacylation ribozyme variant] | 4.42 | 18.9 | 2.42 | 5.6 | 4.72 | 2.78 |
| AUUACCCUGGUCCACGAGUGA [Fam2.1 aminoacylation ribozyme variant] | 9.99 | 61.1 | 5.37 | 10.5 | 10.7 | 4.95 |
| AUUACCCUGGUCCCCGAGUGA [Fam2.1 aminoacylation ribozyme variant] | 15.2 | 113 | 6.57 | 17.3 | 15.6 | 8.55 |
| AUUACCCUGGUCCGCGAGUGA [Fam2.1 aminoacylation ribozyme variant] | 10.5 | 53.1 | 6.07 | 11.5 | 11.5 | 6.47 |
| AUUACCCUGGUCGUCAAGUGA [Fam2.1 aminoacylation ribozyme variant] | 0.773 | 0.371 | 0.713 | 0.394 | 0.821 | 0.836 |
| AUUACCCUGGUCGUCGAGUGC [Fam2.1 aminoacylation ribozyme variant] | 0.9 | 1.76 | 0.739 | 0.43 | 0.808 | 0.907 |

| Sequence | self-aminoacylation (biotinyl-Met-oxazolone) | self-aminoacylation (biotinyl-Phe-oxazolone) | self-aminoacylation (biotinyl-Ile-oxazolone) | self-aminoacylation (biotinyl-Trp-oxazolone) | self-aminoacylation (biotinyl-Leu-oxazolone) | self-aminoacylation (biotinyl-Val-oxazolone) |
| --- | --- | --- | --- | --- | --- | --- |
| AUUACCCUGGUCGUCGCGUGA [Fam2.1 aminoacylation ribozyme variant] | 6.7 | 48.7 | 3.98 | 8.26 | 8.84 | 4.34 |
| AUUACCCUGGUCGUCUAGUGA [Fam2.1 aminoacylation ribozyme variant] | 1.37 | 2.09 | 1.15 | 0.905 | 1.53 | 1.04 |
| AUUACCCUGGUCUUAGAGUGA [Fam2.1 aminoacylation ribozyme variant] | 7.82 | 39.5 | 4.28 | 9.81 | 7.33 | 4.31 |
| AUUACCCUGGUCUUCGAGUGA [Fam2.1 aminoacylation ribozyme variant] | 5.36 | 26.4 | 3.09 | 6.84 | 5.52 | 3.3 |
| AUUACCCUGGUCUUCGAUUGA [Fam2.1 aminoacylation ribozyme variant] | 0.723 | 0.383 | 0.769 | 0.41 | 0.67 | 0.779 |
| AUUACCCUGGUCUUCGGGUGA [Fam2.1 aminoacylation ribozyme variant] | 8.38 | 48.9 | 4.68 | 9.66 | 9.51 | 5.66 |
| AUUACCCUGGUCUUCUAGUGA [Fam2.1 aminoacylation ribozyme variant] | 5.28 | 23.6 | 2.92 | 7.45 | 5.65 | 3.54 |
| AUUACCCUGGUGAUAGAGUGA [Fam2.1 aminoacylation ribozyme variant] | 9.04 | 53.4 | 3.75 | 8.54 | 8.59 | 3.62 |
| AUUACCCUGGUGAUCCAGUGA [Fam2.1 aminoacylation ribozyme variant] | 9.84 | 60.7 | 4.33 | 12.4 | 9.64 | 4.65 |
| AUUACCCUGGUGAUCGAGAGA [Fam2.1 aminoacylation ribozyme variant] | 1.24 | 0.65 | 1.33 | 0.417 | 0.908 | 0.92 |
| AUUACCCUGGUGAUCGAGUGU [Fam2.1 aminoacylation ribozyme variant] | 2.12 | 5.19 | 1.51 | 2.96 | 2.31 | 1.57 |
| AUUACCCUGGUGAUCGAUUGA [Fam2.1 aminoacylation ribozyme variant] | 1.39 | 0.845 | 1.03 | 0.834 | 1.09 | 0.859 |
| AUUACCCUGGUGGUCGAGUGA [Fam2.1 aminoacylation ribozyme variant] | 2.28 | 12.8 | 1.47 | 1.83 | 1.95 | 1.61 |
| AUUACCCUGGUUAUCGAGGGA [Fam2.1 aminoacylation ribozyme variant] | 1.4 | 1.16 | 1.55 | 1.79 | 0.955 | 1.16 |
| AUUACCCUGGUUAUCUAGUGA [Fam2.1 aminoacylation ribozyme variant] | 14.4 | 93.5 | 5.78 | 17.6 | 15.3 | 6.4 |
| AUUACCCUGUACAUCGAGUGA [Fam2.1 aminoacylation ribozyme variant] | 12.5 | 71.1 | 5.18 | 13.2 | 11.6 | 6.19 |
| AUUACCCUGUCCAUCGAGUGA [Fam2.1 aminoacylation ribozyme variant] | 10.6 | 70.4 | 5.63 | 14.8 | 11.3 | 5.38 |
| AUUACCCUGUUCAUCGAGUUA [Fam2.1 aminoacylation ribozyme variant] | 1.13 | 0.909 | 1.19 | 0.616 | 1.12 | 1.12 |
| AUUACCCUGUUCAUCGUGUGA [Fam2.1 aminoacylation ribozyme variant] | 6.29 | 43.7 | 3.1 | 8.71 | 6.24 | 3.04 |
| AUUACCCUGUUCAUGGAGUGA [Fam2.1 aminoacylation ribozyme variant] | 11.1 | 62.8 | 5.12 | 11.8 | 11.4 | 5.28 |
| AUUACCCUGUUCAUUGAGUGA [Fam2.1 aminoacylation ribozyme variant] | 13.8 | 83.6 | 5.73 | 16.3 | 12.7 | 5.4 |
| AUUACCCUUCUCAUCGAGUGA [Fam2.1 aminoacylation ribozyme variant] | 6.6 | 30.8 | 3.51 | 9.57 | 6.53 | 3.65 |
| AUUACCCUUGCCAUCGAGUGA [Fam2.1 aminoacylation ribozyme variant] | 6.18 | 35.2 | 3.09 | 7.05 | 5.63 | 3.18 |
| AUUACCCUUGUCAUCGAAUGA [Fam2.1 aminoacylation ribozyme variant] | 0.839 | 0.805 | 0.946 | 0.552 | 0.89 | 1.09 |
| AUUACCCUUGUCAUCGCGUGA [Fam2.1 aminoacylation ribozyme variant] | 10.7 | 85.5 | 5.26 | 14.3 | 13.6 | 5.9 |

Source: the supplement of paper PMC9233669
